According to PMC10202384:

Target: recombinant full-length SARS-CoV-2 spike protein with a C-terminal 8x His-tag (SARS-CoV-2) (UniProt P0DTC2)
Assay: BLI; spike with C-terminal 8x His-tag (0.35 μM) immobilised on nickel nitrilotriacetic acid biosensors; αIIbβ3 in solution, zero to 0.51 μM (68 to 512 nM); 20 mM tris pH 7.4, 137 mM NaCl, 1 mM MgCl2, 1 mM MnCl2, 1 mM CaCl2, 50% glycerol plus 1X Octet Kinetics Buffer; 25 °C; global fit

Substance: platelet-derived purified human αIIbβ3 protein (from UniProt P05106 27-788) (complex)
- Kd: 47 nM
